No end group written: not given here.
Tests used:
[1] = target: T1, human N-type calcium channel (Homo sapiens, UniProt Q00975); format: cell-based
T1 construct: expressed in transfected cells; host or cells: HEK 293 (human embryonic kidney) cells

[2] = target: T1, human N-type calcium channel; format: cell-based; remark: listed apart in the source

CKGTGKSCSRLMYNCCTGSCRSGKC-NH2 (CKGTGKSCSRLMYNCCTGSCRSGKC-NH2; ends and bridges not checked) [FVIA[I11L, A12M], FVIA with Ile11 and Ala12 mutated to Leu and Met]
Calcium channel blocking activity [1]: calcium channel blocking activity similar to FVIA | Reversibility [2]: significantly reduced reversibility

Reference: patent US8673856B2 (Anygen Co., Ltd., priority 2006, dated 2014)
